Here are results for seven molecules from patent US20040014026A1 (YISSUM RESEARCH DEVELOPMENT COMPANY OF THE HEBREW …, published 2004).

Sequences and labels used below:
B4: WDK2 (Flag-WD with Lys 326 mutated to Ala) (other, UniProt Q9Y297 229-605, looked up, not shown: small tags and cut ends)
chain: IERMVRTDSLWRGLAERRGWGQYLFKNKPPDGNAPPNSFYRALYPKIIQDIETIESNWRCGRHSLQRIHCRSETSKGVYCLQYDDQKIVSGLRDNTIAIWDKNTLECKRILTGHTGSVLCLQYDERVIITGSSDSTVRVWDVNTGEMLNTLIHHCEAVLHLRFNNGMMVTCSKDRSIAVWDMASPTDITLRRVLVGHRAAVNVVDFDDKYIVSASGDRTIKVWNTSTCEFVRTLNGHKRGIACLQYRDRLVVSGSSDNTIRLWDIECGACLRVLEGHEELVRCIRFDNKRIVSGAYDGKIKVWDLVAALDPRAPAGTLCLRTLVEHSGRVFRLQFDEFQIVSSSHDDTILIWDFLNDPAAQAEPPRSPSRTYTYISR
notes: domain: WD fragment (F-Box deleted E3RS); also called Flag-WD mutant WDK2; mutant WD

Test [1] concerns the target IKK-phosphorylated IκBα (pIκBα) (UniProt P25963). In words: pIκBα binding after heat shock, data not shown.
In test [2] the target is T1, hnRNP-U (endogenous protein of 293/293T cells) (UniProt Q00839-2 2-806, limits assumed).
T1 construct: also called p120; 120 kD protein
The test can be described thus: anti-Flag immunopurification from 293T cells, SDS-PAGE Coomassie.
Procedure: (§1) The cells were lysed and the extracts immunoprecipitated, using agarose-conjugated anti-Flag (lanes 1-5) and anti-HA (lane 6) antibodies. Immunoprecipitated proteins were analyzed by SDS-PAGE and Coomassie Brilliant Blue staining.

Test [3] concerns the target T1, hnRNP-U (endogenous protein of 293/293T …). The test can be described thus: pIκBα incubated with anti-hnRNP-U immunobeads carrying the hnRNP-U/E3RS complex, Western blot.
Procedure: (§2) IκBα (FIG. 4D, lanes 1,3,4) and IKK phosphorylated IκBα (pIκBα; FIG. 4D, lanes 2,5-7) were incubated with the immunobeads, after which, both the immunobeads (slurry (S); FIG. 4D, lanes 1-3,5) and the post-slurry fractions (PS; FIG. 4D, lanes 4,6) were analyzed by Western blot directly, or after immunoprecipitation of the post-slurry fraction (same as in FIG. 4D, lane 6) with anti-Flag beads (FIG. 4D, lane 7).
Test [4] has as its target T2, HA-hnRNP-U (UniProt Q00839-2 1-806, limits assumed).
T2 construct: not shown: HA tag
The test can be described thus: anti-p65 immunoprecipitation from 293T cells with MEKK and IKK2, anti-HA Western blot.

Test [5] has as its target B4. In words: pull-down of 35S-labelled pIκBα on anti-Flag immunobeads, phosphorimaging.
Source text: The beads were washed extensively and associated proteins analyzed by SDS-PAGE and phosphorimaging.
Test [6] has as its target T1, hnRNP-U (endogenous protein of 293/293T …). In words: IκBα incubated with anti-hnRNP-U immunobeads carrying the hnRNP-U/E3RS complex, Western blot. (In general: A western blot detects proteins with antibodies after separation by electrophoresis.)
Procedure: as §2
Test [7] shares this target. In words: anti-Flag immunopurification, Flag-peptide elution, Coomassie.
Procedure: To detect specifically dissociated proteins, immunobeads were incubated with Flag peptide (FIG. 3B, lanes 1,4,7), pp10 (FIG. 3B, lanes 2,5,8), p10S/E (FIG. 3B, lanes 3,6,9) and the post-slurry fractions were separated by SDS-PAGE.
For test [8] the target is unchanged. In words: anti-Flag immunoprecipitation from 293T cells, Coomassie and Western blot.
Procedure: as §1
Test [9] has the same target. The test can be described thus: anti-Flag immunoprecipitation from 293T cells, Western blot with monoclonal anti-hnRNP-U (also Coomassie, FIG. 2A lane 3).
Procedure: Cells were harvested 24-48 h after transfection, and extracted by suspension in 50 mM Tris pH 7.6, 1 mM dithiothreitol (DTT), 0.1% Nonidet P-40 (NP-40), 1 mM phenyl methyl sulfonyl fluoride, 1% Aprotinin and vortexing for 20 sec. Cell extracts were collected following centrifugation at 20,000 g for 30 min at 4° C. Cell extract (500 μg protein) was adjusted to 150 mM NaCl prior to immunoprecipitation. Flag-tagged proteins were immunoprecipitated with 2 μl of the anti-Flag immunobeads. Immunoprecipitation was for 2 h at 4° C. and the immunobeads were washed 4× in 300 mM NaCl, 1 mM DTT, 0.1% NP-40 and 50 mM Tris, pH 7.6. Flag-tagged proteins were eluted from the Flag immunobeads with 1 mg/ml of Flag peptide in 50 mM Tris, pH 7.6 for 30 min at 25° C. hnRNP-U was immunoprecipitated using 0.2-0.5 μl of the 3G6 antibody and 2-5%1 of Protein G immunobeads.
as §1

As to “E3K2 (Flag-E3RS with the K2 residue Lys 326 mutated to Ala) (from UniProt Q9Y297 1-605)”, in [1], the loss of pIκBα binding capacity after heat shock was 50 to 60%.

B1: Flag-tagged E3RS/βTrCP (Flag-E3RS) (other, UniProt Q9Y297 1-605, looked up, not shown: small tags and cut ends)
chain: MDPAEAVLQEKALKFMCSMPRSLWLGCSSLADSMPSLRCLYNPGTGALTAFQNSSEREDCNNGEPPRKIIPEKNSLRQTYNSCARLCLNQETVCLASTAMKTENCVAKTKLANGTSSMIVPKQRKLSASYEKEKELCVKYFEQWSESDQVEFVEHLISQMCHYQHGHINSYLKPMLQRDFITALPARGLDHIAENILSYLDAKSLCAAELVCKEWYRVTSDGMLWKKLIERMVRTDSLWRGLAERRGWGQYLFKNKPPDGNAPPNSFYRALYPKIIQDIETIESNWRCGRHSLQRIHCRSETSKGVYCLQYDDQKIVSGLRDNTIKIWDKNTLECKRILTGHTGSVLCLQYDERVIITGSSDSTVRVWDVNTGEMLNTLIHHCEAVLHLRFNNGMMVTCSKDRSIAVWDMASPTDITLRRVLVGHRAAVNVVDFDDKYIVSASGDRTIKVWNTSTCEFVRTLNGHKRGIACLQYRDRLVVSGSSDNTIRLWDIECGACLRVLEGHEELVRCIRFDNKRIVSGAYDGKIKVWDLVAALDPRAPAGTLCLRTLVEHSGRVFRLQFDEFQIVSSSHDDTILIWDFLNDPAAQAEPPRSPSRTYTYISR
notes: F-box protein, receptor subunit of the IκB-E3; Immunopurified material may carry endogenous Skp1/Cul1; also called β-TrCP/E3RS; WT E3RS
In the case of B1, in test [2], the “Coomassie staining ratio p120/E3RS” value was 1.5 ratio p120:E3RS.

B2: IKK-phosphorylated IκBα (pIκBα) (other, UniProt P25963 1-317, looked up)
chain: MFQAAERPQEWAMEGPRDGLKKERLLDDRHDSGLDSMKDEEYEQMVKELQEIRLEPQEVPRGSEPWKQQLTEDGDSFLHLAIIHEEKALTMEVIRQVKGDLAFLNFQNNLQQTPLHLAVITNQPEIAEALLGAGCDPELRDFRGNTPLHLACEQGCLASVGVLTQSCTTPHLHSILKATNYNGHTCLHLASIHGYLGIVELLVSLGADVNAQEPCNGRTALHLAVDLQNPDLVSLLLKCGADVNRVTYQGYSPYQLTWGRPSTRIQQQLGQLTLENLQMLPESEDEESYDTESEFTEFTEDELPYDDCVFGGQRLTL
modifications: phosphorylated by IKK2 (sites not given); 35S-labelled in the in vitro assays
notes: in the other assays it was phosphorylated in vitro by IKK2
Regarding B2, the binding result in [3], in [4] and in [5] was “no binding” each time.

B3: non-phosphorylated IκBα (other, UniProt P25963 1-317, looked up)
chain: MFQAAERPQEWAMEGPRDGLKKERLLDDRHDSGLDSMKDEEYEQMVKELQEIRLEPQEVPRGSEPWKQQLTEDGDSFLHLAIIHEEKALTMEVIRQVKGDLAFLNFQNNLQQTPLHLAVITNQPEIAEALLGAGCDPELRDFRGNTPLHLACEQGCLASVGVLTQSCTTPHLHSILKATNYNGHTCLHLASIHGYLGIVELLVSLGADVNAQEPCNGRTALHLAVDLQNPDLVSLLLKCGADVNRVTYQGYSPYQLTWGRPSTRIQQQLGQLTLENLQMLPESEDEESYDTESEFTEFTEDELPYDDCVFGGQRLTL
As for B3, in [6], the binding result is “no binding”.

On to B4, for which, in test [7], the binding result was “no binding”.

B5: Flag-F-Box (F-Box fragment of E3RS) (other, UniProt Q9Y297 1-228, looked up, not shown: small tags and cut ends)
chain: MDPAEAVLQEKALKFMCSMPRSLWLGCSSLADSMPSLRCLYNPGTGALTAFQNSSEREDCNNGEPPRKIIPEKNSLRQTYNSCARLCLNQETVCLASTAMKTENCVAKTKLANGTSSMIVPKQRKLSASYEKEKELCVKYFEQWSESDQVEFVEHLISQMCHYQHGHINSYLKPMLQRDFITALPARGLDHIAENILSYLDAKSLCAAELVCKEWYRVTSDGMLWKKL
notes: domain: F-Box fragment
For the molecule B5, the binding result in test [8] is “no binding”.

B6: Flag-HOS/β-TrCP2 (other, human, UniProt Q9UKB1 1-542, looked up, not shown: small tags and cut ends)
chain: MEPDSVIEDKTIELMCSVPRSLWLGCANLVESMCALSCLQSMPSVRCLQISNGTSSVIVSRKRPSEGNYQKEKDLCIKYFDQWSESDQVEFVEHLISRMCHYQHGHINSYLKPMLQRDFITALPEQGLDHIAENILSYLDARSLCAAELVCKEWQRVISEGMLWKKLIERMVRTDPLWKGLSERRGWDQYLFKNRPTDGPPNSFYRSLYPKIIQDIETIESNWRCGRHNLQRIQCRSENSKGVYCLQYDDEKIISGLRDNSIKIWDKTSLECLKVLTGHTGSVLCLQYDERVIVTGSSDSTVRVWDVNTGEVLNTLIHHNEAVLHLRFSNGLMVTCSKDRSIAVWDMASATDITLRRVLVGHRAAVNVVDFDDKYIVSASGDRTIKVWSTSTCEFVRTLNGHKRGIACLQYRDRLVVSGSSDNTIRLWDIECGACLRVLEGHEELVRCIRFDNKRIVSGAYDGKIKVWDLQAALDPRAPASTLCLRTLVEHSGRVFRLQFDEFQIISSSHDDTILIWDFLNVPPSAQNETRSPSRTYTYISR
notes: also called β-TrCP2/HOS
For B6, the binding result in test [9] was “no binding”.
